# Data reported in patent US5972599.
# Key:
# [1] = target: T1, IL-4 (Homo sapiens) (UniProt P05112); test: filter
# T1 sequence: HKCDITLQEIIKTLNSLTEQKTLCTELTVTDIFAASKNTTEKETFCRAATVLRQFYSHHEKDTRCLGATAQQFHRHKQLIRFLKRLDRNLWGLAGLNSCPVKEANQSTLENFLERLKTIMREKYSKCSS
# [2] = target: T2, IFN-gamma (Mus musculus) (UniProt P01580); test: filter; conditions: mouse protein
# T2 sequence: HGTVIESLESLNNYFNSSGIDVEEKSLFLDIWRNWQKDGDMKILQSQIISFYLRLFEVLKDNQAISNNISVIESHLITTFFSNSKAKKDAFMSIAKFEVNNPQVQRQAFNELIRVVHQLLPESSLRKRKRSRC
# [3] = target: T3, IFN-gamma (Homo sapiens) (UniProt P01579); test: filter
# T3 sequence: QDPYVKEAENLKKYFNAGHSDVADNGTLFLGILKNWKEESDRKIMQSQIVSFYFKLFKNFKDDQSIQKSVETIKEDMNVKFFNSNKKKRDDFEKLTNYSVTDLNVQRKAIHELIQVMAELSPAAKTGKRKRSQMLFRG
# [4] = target: TNF-alpha (Homo sapiens) (UniProt P01375); test: filter
# [5] = target: TNF-alpha (Homo sapiens) (UniProt P01375); test: competition; conditions: random RNA control, U937 cells
# [6] = target: T4, RANTES (Homo sapiens) (UniProt P13501); test: filter
# T4 sequence: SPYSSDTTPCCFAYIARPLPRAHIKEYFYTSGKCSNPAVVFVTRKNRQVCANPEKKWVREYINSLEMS
# [7] = target: T5, TNF-alpha (Mus musculus) (UniProt P06804); test: filter; conditions: specificity control
# T5 sequence: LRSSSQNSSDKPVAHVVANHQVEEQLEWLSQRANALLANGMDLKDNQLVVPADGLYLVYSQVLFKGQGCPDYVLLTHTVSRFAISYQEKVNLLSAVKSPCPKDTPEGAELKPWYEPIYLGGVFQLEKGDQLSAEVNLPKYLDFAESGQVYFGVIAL
# [8] = target: T6, TNF-beta (Homo sapiens) (UniProt P01374); test: filter; conditions: specificity control
# T6 sequence: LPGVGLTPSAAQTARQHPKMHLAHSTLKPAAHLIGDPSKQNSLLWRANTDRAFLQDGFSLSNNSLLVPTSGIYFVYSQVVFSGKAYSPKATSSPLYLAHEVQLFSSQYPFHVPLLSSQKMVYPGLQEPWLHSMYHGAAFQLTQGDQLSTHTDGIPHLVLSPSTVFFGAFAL
# [9] = 2'-F all C and U, round 17 pool
# [10] = 2'-F all C, 2'-NH2 all U, round 17 pool
# [11] = 2'-NH2 all C and U, random pool
# [12] = 2'-F all C, 2'-NH2 all U, random pool
# Chain of TNF-alpha (Homo sapiens) (P01375 77-233): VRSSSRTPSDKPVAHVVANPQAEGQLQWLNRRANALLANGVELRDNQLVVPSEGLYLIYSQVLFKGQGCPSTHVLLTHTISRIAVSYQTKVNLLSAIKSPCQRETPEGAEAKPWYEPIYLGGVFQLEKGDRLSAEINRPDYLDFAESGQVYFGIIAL
sequence,measurement,setting,value
GGGAGACAAGAAUAAACGCUCAANNNNNNNNNNNNNNNNNNNNNNNNNNNNNNNNNNNNNNNNUUCGACAGGAGGCUCACAACAGGC [IL-4 round 17 pool 2'NH2],Kd,"[1]; 2'-NH2 all C and U, round 17 pool, high filter background, earlier round about 100 nM",1 µM
GGGAGGACGAUGCGGNNNNNNNNNNNNNNNNNNNNNNNNNNNNNNNNNNNNNNNNCAGACGACUCGCCCGA [IFN-gamma round 17 pool 2'F],Kd,[2]; 2'-F all C and U,0.41 µM
same,Kd,[3]; [9],0.07 µM
GGGAGACAAGAAUAAACGCUCAANNNNNNNNNNNNNNNNNNNNNNNNNNNNNNNNNNNNNNNNUUCGACAGGAGGCUCACAACAGGC [IL-4 round 17 pool 2'F/NH2],Kd,[1]; [10],0.055 µM
GGGAGCUCAGAAUAAACGCUCAANNNNNNNNNNNNNNNNNNNNNNNNNNNNNNUUCGACAUGAGGCCCGGAUCCGGC [TNF round 6 C-SELEX pool],Kd,[4]; C-SELEX final pool,0.4 µM
GGGAGCUCAGAAUAAACGCUCAANNNNNNNNNNNNNNNNNNNNNNNNNNNNNNUUCGACAUGAGGCCCGGAUCCGGC [TNF random RNA],Ki,[5],> 1000 µM
same,Kd,"[4]; estimated, flat curves up to 10 uM protein",> 1000 µM
GGGAGGACGATGCGGNNNNNNNNNNNNNNNNNNNNNNNNNNNNNNNNNNNNNNNNCAGACGACTCGCCCGA [RANTES random ssDNA pool 40N7],Kd,"[6]; starting pool, 150 mM NaCl",3 µM
GGGAGACAAGAAUAAACGCUCAANNNNNNNNNNNNNNNNNNNNNNNNNNNNNNNNNNNNNNNNUUCGACAGGAGGCUCACAACAGGC [IL-4 round 17 pool 2'F],Kd,[1]; [9],0.03 µM
GGGAGGACGAUGCGGNNNNNNNNNNNNNNNNNNNNNNNNNNNNNNNNNNNNNNNNCAGACGACUCGCCCGA [40N7 random pool 2'F],Kd,"[3]; 2'-F all C and U, random pool",> 0.7 µM
GGGAGGACGAUGCGGNNNNNNNNNNNNNNNNNNNNNNNNNNNNNNNNNNNNNNNNCAGACGACUCGCCCGA [IFN-gamma round 17 pool 2'F/NH2],Kd,"[2]; 2'-F all C, 2'-NH2 all U",0.175 µM
same,Kd,[3]; [10],0.115 µM
GGGAGGACGAUGCGGNNNNNNNNNNNNNNNNNNNNNNNNNNNNNNNNNNNNNNNNCAGACGACUCGCCCGA [IFN-gamma round 17 pool 2'NH2],Kd,[2]; 2'-NH2 all C and U,0.085 µM
same,Kd,"[3]; 2'-NH2 all C and U, round 17 pool",0.02 µM
GGGAGGACGAUGCGGNNNNNNNNNNNNNNNNNNNNNNNNNNNNNNNNNNNNNNNNCAGACGACUCGCCCGA [40N7 random pool 2'NH2],Kd,[3]; [11],> 0.7 µM
GGGAGACAAGAAUAAACGCUCAANNNNNNNNNNNNNNNNNNNNNNNNNNNNNNNNNNNNNNNNUUCGACAGGAGGCUCACAACAGGC [40N8 random pool 2'F],Kd,"[1]; 2'-F all C and U, random pool",> 20 µM
GGGAGACAAGAAUAAACGCUCAANNNNNNNNNNNNNNNNNNNNNNNNNNNNNNNNNNNNNNNNUUCGACAGGAGGCUCACAACAGGC [40N8 random pool 2'NH2],Kd,[1]; [11],> 20 µM
GGGAGCUCAGAAUAAACGCUCAANNNNNNNNNNNNNNNNNNNNNNNNNNNNNNUUCGACAUGAGGCCCGGAUCCGGC [TNF round 23 A-SELEX pool],Kd,[4]; round 23A pool,0.7 µM
same,Kd,[7],> 1000 µM
same,Kd,[8],> 1000 µM
GGGAGGACGAUGCGGNNNNNNNNNNNNNNNNNNNNNNNNNNNNNNNNNNNNNNNNCAGACGACUCGCCCGA [40N7 random pool 2'F/NH2],Kd,[3]; [12],> 0.7 µM
GGGAGACAAGAAUAAACGCUCAANNNNNNNNNNNNNNNNNNNNNNNNNNNNNNNNNNNNNNNNUUCGACAGGAGGCUCACAACAGGC [40N8 random pool 2'F/NH2],Kd,[1]; [12],> 20 µM
GGGAGGACGATGCGGNNNNNNNNNNNNNNNNNNNNNNNNNNNNNNNNNNNNNNNNCAGACGACTCGCCCGA [RANTES round 19 ssDNA pool],Kd,"[6]; round 19, 150 mM NaCl, text says 20 nM",0.018 µM
